Assay results: publication PMC11485096

Biological target: AtoB (Aspergillus ochraceus LZDX-32-15)
Test: crystal structure

Which stoichiometry N does the source give for AtoB (enzyme) here?
The stoichiometry N was 2.
